For assay [1], the target named is T1, Human CD3ε stalk-Fc(knob)-Avi/CD3δ stalk-Fc(hole) (human).
T1 construct: Heterodimer of CD3 delta and CD3 epsilon ectodomains fused to human Fc with knob-into-hole; also called human CD3ε/δ; CD3 antigen
Nature of the assay: SPR, TCB captured by anti-PG antibody, antigen as analyte, 25°C. The source says:
(§1) For affinity measurements, TCB molecules were captured on a C1 sensorchip (GE Healthcare) surface with immobilized anti-Fc(P329G) IgG (an antibody that specifically binds human IgG₁ Fc(P329G); “anti-PG antibody”—see WO 2017/072210, incorporated herein by reference). The experimental setup is schematically depicted in FIG. 3. Capture IgG was coupled to the sensorchip surface by direct immobilization of around 400 resonance units (RU) using the standard amine coupling kit (GE Healthcare Life Sciences).
(§2) Kinetic constants were derived using the Biacore T200 Evaluation Software (GE Healthcare Life Sciences), to fit rate equations for 1:1 Langmuir binding by numerical integration. The half-life (t_{1/2}) of the interaction was calculated using the formula t_{1/2}=ln2/koff.
(§3) To analyze the interaction to CD3, TCB molecules were captured for 240 s at 25 nM with a flow rate of 10 μl/min. Human and cynomolgus CD3F stalk-Fc(knob)-Avi/CD36-stalk-Fc(hole) were passed at a concentration of 0.14-100 nM with a flow rate of […] through the flow cells for 240 s. The dissociation was monitored for 800 s.
(Surface plasmon resonance follows binding to a sensor surface in real time, without labels.)

Assay [2] has as its target T2, Cynomolgus CD3ε stalk-Fc(knob)-Avi/CD3δ stalk-Fc(hole) (cynomolgus).
T2 construct: also called cynomolgus CD3ε/δ
The assay is described as above.
Text: as §1, §2, §3

In assay [3] the target is T1, Human CD3ε stalk-Fc(knob)-Avi/CD3δ …. Nature of the assay: SPR on immobilized human CD3ε/δ after stress, relative to sample kept at -80°C pH 6. The method, then: (§4) In order to assess the effect of the deamidation site removal and its effect on the stability of the antibodies, the optimized anti-CD3 antibodies (in TCB format) were incubated for 14 days at 37° C., pH 7.4 and at 40° C., pH 6 and further analyzed by SPR for their binding capability to human CD3ε/δ. Samples stored at −80° C. pH 6 were used as reference. The reference samples and the samples stressed at 40° C. were in 20 mM His, 140 mM NaCl, pH 6.0, and the samples stressed at 37° C. in PBS, pH 7.4, all at a concentration of 1.0 mg/ml. After the stress period (14 days) samples in PBS were dialyzed back to 20 mM His, 140 mM NaCl, pH 6.0 for further analysis.
(§5) All SPR experiments were performed on a Biacore T200 instrument (GE Healthcare) at 25° C. with HBS-P+ (10 mM HEPES, 150 mM NaCl pH 7.4, 0.05% Surfactant P20) as running and dilution buffer. Biotinylated human CD3ε/δ (see Example 3, SEQ ID NOs 41 and 42) as well as biotinylated anti-huIgG (Capture Select, Thermo Scientific, #7103262100) were immobilized on a Series S Sensor Chip SA (GE Healthcare, #29104992), resulting in surface densities of at least 1000 resonance units (RU). Anti-CD3 antibodies with a concentration of 2 μg/ml were injected for 30 s at a flow rate of 5 μl/min, and dissociation was monitored for 120 s. The surface was regenerated by injecting 10 mM glycine pH 1.5 for 60 s. Bulk refractive index differences were corrected by subtracting blank injections and by subtracting the response obtained from a blank control flow cell. For evaluation, the binding response 5 seconds after injection end was taken. To normalize the binding signal, the CD3 binding was divided by the anti-huIgG response (the signal (RU) obtained upon capture of the CD3 antibody on the immobilized anti-huIgG antibody). The relative binding activity was calculated by referencing each temperature stressed sample to the corresponding, non-stressed sample.
The experiment was performed as described in Example 4, using the TCB molecules prepared in Example 7.

Assay [4] deals with human CD3 on cells (CD3ε) (human, UniProt P07766 23-207). Nature of the assay: cell-based or functional assay.
Chain of human CD3 on cells (CD3ε) (P07766 23-207 limits assumed): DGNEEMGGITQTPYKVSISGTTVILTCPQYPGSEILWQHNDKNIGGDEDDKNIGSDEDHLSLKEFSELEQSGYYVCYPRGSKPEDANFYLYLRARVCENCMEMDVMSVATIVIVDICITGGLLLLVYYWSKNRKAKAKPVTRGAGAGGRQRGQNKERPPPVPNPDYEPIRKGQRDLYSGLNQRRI
The target of assay [5] is T1, Human CD3ε stalk-Fc(knob)-Avi/CD3δ …. Kind of assay: SPR on immobilized human CD3ε/δ after stress, relative to sample kept at -80°C pH 6. The method, then:
as §4, §5
This is another data set of the same source.

Assay [6] shares this target. Kind of assay: SPR, TCB captured by anti-PG antibody, antigen as analyte, 25°C.
Text: as §1
(§6) To analyze the interaction to CD3, TCB molecules were captured for 80 s at 25 nM with a flow rate of 10 μl/min. […] The dissociation was monitored for 800 s.
as §2
The source holds these as a separate data set.

Assay [7] has as its target T2, Cynomolgus CD3ε stalk-Fc(knob)-Avi/CD3δ …. The description is as above.
Text: as §1, §6, §2
The source holds these as a separate data set.

Where two headings read alike, the source gives them in different places.

B1: CEACAM5-TCB, CEACAM5 CD3 variant P035.093 (bispecific antibody, human IgG1, kappa, L234A L235A)
heavy 1: not shown
heavy 2: QVQLVQSGAEVKKPGSSVKVSCKASGFNIKDTYMHWVRQAPGQGLEWMGRIDPANGNSKYVPKFQGRVTITADTSTSTAYMELSSLRSEDTAVYYCAPFGYYVSDYAMAYWGQGTLVTVSSASTKGPSVFPLAPSSKSTSGGTAALGCLVEDYFPEPVTVSWNSGALTSGVHTFPAVLQSSGLYSLSSVVTVPSSSLGTQTYICNVNHKPSNTKVDEKVEPKSCDKTHTCPPCPAPEAAGGPSVFLFPPKPKDTLMISRTPEVTCVVVDVSHEDPEVKFNWYVDGVEVHNAKTKPREEQYNSTYRVVSVLTVLHQDWLNGKEYKCKVSNKALGAPIEKTISKAKGQPREPQVCTLPPSRDELTKNQVSLSCAVKGFYPSDIAVEWESNGQPENNYKTTPPVLDSDGSFFLVSKLTVDKSRWQQGNVFSCSVMHEALHNHYTQKSLSLSP
light 1: EIVLTQSPATLSLSPGERATLSCRAGESVDIFGVGFLHWYQQKPGQAPRLLIYRASNRATGIPARFSGSGSGTDFTLTISSLEPEDFAVYYCQQTNEDPYTFGQGTKLEIKRTVAAPSVFIFPPSDRKLKSGTASVVCLLNNFYPREAKVQWKVDNALQSGNSQESVTEQDSKDSTYSLSSTLTLSKADYEKHKVYACEVTHQGLSSPVTKSFNRGEC
light 2: EVQLLESGGGLVQPGGSLRLSCAASGFTFSSYAMNWVRQAPGKGLEWVSRIRSKYNNYATYYADSVKGRFTISRDDSKNTLYLQMNSLRAEDTAVYYCVRASNFPASYVSYFAYWGQGTLVTVSSASVAAPSVFIFPPSDEQLKSGTASVVCLLNNFYPREAKVQWKVDNALQSGNSQESVTEQDSKDSTYSLSSTLTLSKADYEKHKVYACEVTHQGLSSPVTKSFNRGEC
notes: 2+1 IgG CrossFab, inverted; human IgG1 Fc, knob-into-hole, PGLALA; also called P035.093 in CEACAM5-TCB format
As a reminder, the Kd is the constant that tells how readily two partners part at equilibrium. As a reminder, the koff is the rate constant with which the complex falls apart. A word on the kon: it is the rate constant with which the complex forms. In assay [1], B1 returned a Kd of 0.384 nM, a koff of 0.00111 s⁻¹, a kon of 2.93e+06 M⁻¹ s⁻¹ and a t1/2 of 10.4 min. For the same molecule, in assay [2], the Kd is 0.201 nM, the koff was found to be 0.000765 s⁻¹, the association rate constant (kon) was found to be 3.8e+06 M⁻¹ s⁻¹ and the t1/2 was 15.1 min. In addition, in assay [3], the “binding activity [%] after 2 weeks at pH 6.0/40°C” value is 100% and the “binding activity [%] after 2 weeks at pH 7.4/37°C” value is 97%. In assay [4], the “EC50 24 h (pM), T-cell mediated lysis of CEACAM5-expressing LS180 tumor cells” value was 22 pM and the “EC50 48 h (pM), T-cell mediated lysis of CEACAM5-expressing LS180 tumor cells” value was found to be 14.2 pM.

B2: TYRP1-TCB with anti-CD3 antibody clone P035.093 (bispecific antibody, human IgG1, kappa, L234A L235A)
heavy 1: not shown
heavy 2: QVQLVQSGAEVKKPGASVKVSCKASGFNIKDYFLHWVRQAPGQGLEWMGWINPDNGNTVYAQKFQGRVTMTADTSTSTVYMELSSLRSEDTAVYYCTRRDYTYEKAALDYWGQGTLVTVSSASTKGPSVFPLAPSSKSTSGGTAALGCLVEDYFPEPVTVSWNSGALTSGVHTFPAVLQSSGLYSLSSVVTVPSSSLGTQTYICNVNHKPSNTKVDEKVEPKSCDKTHTCPPCPAPEAAGGPSVFLFPPKPKDTLMISRTPEVTCVVVDVSHEDPEVKFNWYVDGVEVHNAKTKPREEQYNSTYRVVSVLTVLHQDWLNGKEYKCKVSNKALGAPIEKTISKAKGQPREPQVCTLPPSRDELTKNQVSLSCAVKGFYPSDIAVEWESNGQPENNYKTTPPVLDSDGSFFLVSKLTVDKSRWQQGNVFSCSVMHEALHNHYTQKSLSLSP
light 1: DIQMTQSPSSLSASVGDRVTITCRASGNIYNYLAWYQQKPGKVPKLLIYDAKTLADGVPSRFSGSGSGTDFTLTISSLQPEDVATYYCQHFWSLPFTFGQGTKLEIKRTVAAPSVFIFPPSDRKLKSGTASVVCLLNNFYPREAKVQWKVDNALQSGNSQESVTEQDSKDSTYSLSSTLTLSKADYEKHKVYACEVTHQGLSSPVTKSFNRGEC
light 2: EVQLLESGGGLVQPGGSLRLSCAASGFTFSSYAMNWVRQAPGKGLEWVSRIRSKYNNYATYYADSVKGRFTISRDDSKNTLYLQMNSLRAEDTAVYYCVRASNFPASYVSYFAYWGQGTLVTVSSASVAAPSVFIFPPSDEQLKSGTASVVCLLNNFYPREAKVQWKVDNALQSGNSQESVTEQDSKDSTYSLSSTLTLSKADYEKHKVYACEVTHQGLSSPVTKSFNRGEC
notes: human IgG1 Fc, knob-into-hole, P329G L234A L235A; also called P035.093 in TCB format
For B2, in assay [5], the “binding activity [%] after 2 weeks at pH 6.0/40°C” value was determined as 97% and the “binding activity [%] after 2 weeks at pH 7.4/37°C” value amounted to 95%. For the same molecule, in assay [6], binding was put at a Kd of 0.41 nM, the koff was 0.00153 s⁻¹, the kon came out at 3.75e+06 M⁻¹ s⁻¹ and the t1/2 was determined as 7.55 min. In assay [7], the Kd amounted to 0.21 nM, the koff amounted to 0.00104 s⁻¹, the kon is 4.89e+06 M⁻¹ s⁻¹ and the t1/2 stood at 11.1 min.

B3: CEACAM5-TCB with CD3orig as CD3 binder (bispecific antibody, human IgG1, kappa, L234A L235A)
heavy 1: not shown
heavy 2: QVQLVQSGAEVKKPGSSVKVSCKASGFNIKDTYMHWVRQAPGQGLEWMGRIDPANGNSKYVPKFQGRVTITADTSTSTAYMELSSLRSEDTAVYYCAPFGYYVSDYAMAYWGQGTLVTVSSASTKGPSVFPLAPSSKSTSGGTAALGCLVEDYFPEPVTVSWNSGALTSGVHTFPAVLQSSGLYSLSSVVTVPSSSLGTQTYICNVNHKPSNTKVDEKVEPKSCDKTHTCPPCPAPEAAGGPSVFLFPPKPKDTLMISRTPEVTCVVVDVSHEDPEVKFNWYVDGVEVHNAKTKPREEQYNSTYRVVSVLTVLHQDWLNGKEYKCKVSNKALGAPIEKTISKAKGQPREPQVCTLPPSRDELTKNQVSLSCAVKGFYPSDIAVEWESNGQPENNYKTTPPVLDSDGSFFLVSKLTVDKSRWQQGNVFSCSVMHEALHNHYTQKSLSLSP
light 1: EIVLTQSPATLSLSPGERATLSCRAGESVDIFGVGFLHWYQQKPGQAPRLLIYRASNRATGIPARFSGSGSGTDFTLTISSLEPEDFAVYYCQQTNEDPYTFGQGTKLEIKRTVAAPSVFIFPPSDRKLKSGTASVVCLLNNFYPREAKVQWKVDNALQSGNSQESVTEQDSKDSTYSLSSTLTLSKADYEKHKVYACEVTHQGLSSPVTKSFNRGEC
light 2: EVQLLESGGGLVQPGGSLRLSCAASGFTFSTYAMNWVRQAPGKGLEWVSRIRSKYNNYATYYADSVKGRFTISRDDSKNTLYLQMNSLRAEDTAVYYCVRHGNFGNSYVSWFAYWGQGTLVTVSSASVAAPSVFIFPPSDEQLKSGTASVVCLLNNFYPREAKVQWKVDNALQSGNSQESVTEQDSKDSTYSLSSTLTLSKADYEKHKVYACEVTHQGLSSPVTKSFNRGEC
notes: also called CD3orig in CEACAM5-TCB format
In the case of B3, in assay [1], the dissociation constant (Kd) was found to be 3.37 nM, the koff is 0.00281 s⁻¹, the on-rate constant (kon) was found to be 851000 M⁻¹ s⁻¹ and the t1/2 is 4.1 min. In assay [3], the “binding activity [%] after 2 weeks at pH 6.0/40°C” value turned out to be 95% and the “binding activity [%] after 2 weeks at pH 7.4/37°C” value was 66%. Also, in assay [4], the “EC50 24 h (pM), T-cell mediated lysis of CEACAM5-expressing LS180 tumor cells” value is 244 pM and the “EC50 48 h (pM), T-cell mediated lysis of CEACAM5-expressing LS180 tumor cells” value turned out to be 115 pM.

The values are drawn from patent publication US20260125469A1 (Hoffmann-La Roche, published 2026).
